The text below walks through data of patent US20140120109A1 (Regeneron, published 2014).

Substitutions are numbered along the chain they refer to. In names and notes the source's numbering stands.

Broadly, the IC50 is the concentration at which inhibition is half-maximal. The low end stands for higher potency, the high end for lower potency. By Kd is commonly meant the concentration at which binding is half-saturated. Higher therefore signals lower affinity.

Assay [1] concerns the target T1, human TL1A, soluble, CHO-expressed, residues 72-251 of SEQ ID NO:244 with N-terminal His6-tag (human, UniProt O95150 72-251).
T1 sequence: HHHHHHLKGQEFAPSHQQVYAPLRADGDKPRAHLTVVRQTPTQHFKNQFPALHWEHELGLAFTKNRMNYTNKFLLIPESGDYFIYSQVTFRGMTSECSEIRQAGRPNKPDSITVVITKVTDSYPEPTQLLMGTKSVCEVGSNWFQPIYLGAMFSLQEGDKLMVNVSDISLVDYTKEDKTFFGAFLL
Briefly: cell-based or functional assay.

Assay [2] addresses T2, Fhm, hTL1A(Q167R), soluble, CHO-expressed, residues 72-251 of SEQ ID NO:246 (human, UniProt O95150 72-251).
T2 construct: also called Fhm (CHO); FHM (CHO)
T2 chain: T1 sequence with Q102R
In words: ELISA, blocks FHM (10 pM) binding hDcR3-Fc. As to the method: (§1) The ability of antibodies to block human TL1A binding to its cognate receptors, the DR3 and DcR3 receptors, was measured using a competition sandwich ELISA. In addition, blocking of a human TL1A variant FHM (human TL1A Q167R) and the cynomolgus monkey (Macaca fascicularis) TL1A (MfTL1A) protein binding to the human DR3 or DcR3 receptors was measured in the same manner. Constant amounts of biotinylated human TL1A or FHM (both expressed with a 6-His tag in CHO cells) or biotinylated MfTL1A (expressed in CHO cells) were separately titrated with varying amounts of antibodies. The antibody-protein complexes were incubated in solution (1 hr, 25° C.) and then transferred to microtiter plates coated with human DR3 (hDR3) or human DcR3 (hDcR3) expressed as human IgG1 Fc fusion proteins. After one hour at 25° C. the wells were washed, and bound human or monkey TL1A was detected with streptavidin conjugated with horseradish peroxidase (HRP). Wells were developed with a TMB solution to produce a colorimetric reaction and quenched with aqueous sulfuric acid before reading absorbance at 450 nm on a Perkin-Elmer Victor X5 plate reader. A sigmoidal dose-response curve was fit to the data using the Prism™ data analysis package. […] Both fully human anti-hTL1A mAbs and comparator antibodies, i.e., control mAb1 (an anti-hTL1A antibody with heavy and light chain variable domains having the amino acid sequences corresponding to SEQ ID NOS:21 and 27, respectively, of US 2009/0280116) and control mAb3 (an anti-hTL1A antibody with heavy and light chain variable domains having the amino acid sequences corresponding to SEQ ID NOS:57 and 48, respectively, of US 2009/0280116), were included in the study. NB: No binding under the conditions tested; NT: Not tested. Concentrations of biotinylated soluble ligands: (1) 150 pM; (2) 500 pM; (3) 10 pM; and (4) 50 pM.

Assay [3] concerns the target T3, mouse TL1A, soluble, CHO-expressed, residues 76-252 of SEQ ID NO:250 with N-terminal His6-tag (mouse, UniProt Q5UBV8 76-252).
T3 construct: also called mTL1A; mTL1A (CHO)
T3 sequence: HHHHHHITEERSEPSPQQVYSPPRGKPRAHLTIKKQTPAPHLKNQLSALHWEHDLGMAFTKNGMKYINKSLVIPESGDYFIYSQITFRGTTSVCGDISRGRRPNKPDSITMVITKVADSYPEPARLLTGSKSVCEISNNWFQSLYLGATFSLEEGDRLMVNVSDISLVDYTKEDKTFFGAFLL
In words: SPR 37C, mAb captured. The method, boiled down: (§2)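 Biacore T100 SPR with captured mAb and soluble TL1A/Fhm analyte; ka and kd fitted to a 1:1 model assuming monomeric TL1A. KD = kd/ka; t1/2 (min) = ln2/(60·kd).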

In assay [4] the target is T4, rat TL1A, soluble, CHO-expressed, residues 76-252 of SEQ ID NO:258 with N-terminal His6-tag (rat, UniProt Q8K3Y7 76-252).
T4 construct: also called rTL1A; rTL1A (CHO)
T4 sequence: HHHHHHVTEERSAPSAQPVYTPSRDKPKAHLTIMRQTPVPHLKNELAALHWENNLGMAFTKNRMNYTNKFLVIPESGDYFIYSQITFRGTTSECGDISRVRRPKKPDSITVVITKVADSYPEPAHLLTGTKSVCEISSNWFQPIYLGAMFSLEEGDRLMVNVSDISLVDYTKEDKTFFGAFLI
Briefly: SPR 37C, mAb captured. The method, boiled down:
as §2

The target of assay [5] is T2, Fhm, hTL1A(Q167R), soluble, …. In words: ELISA, blocks FHM (150 pM) binding hDR3-Fc. The procedure: as §1
(In general: An ELISA detects its analyte on a solid surface through an enzyme-linked reagent.)

Assay [6] has as its target T5, Fhm, hTL1A(Q167R), soluble, E. coli-expressed, residues 72-251 of SEQ ID NO:246 (human, UniProt O95150 72-251).
T5 construct: with or without N-terminal Met
T5 chain: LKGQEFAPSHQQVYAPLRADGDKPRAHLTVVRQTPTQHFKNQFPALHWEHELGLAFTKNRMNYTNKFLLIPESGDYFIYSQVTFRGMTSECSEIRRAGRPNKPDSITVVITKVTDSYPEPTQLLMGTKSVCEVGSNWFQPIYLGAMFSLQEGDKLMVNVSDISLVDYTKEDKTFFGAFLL
Briefly: SPR 37C, mAb captured. Put shortly: as §2

B1: H4H1704N (antibody, human IgG4 S228P, V domains shown)
VH: EVQLVESGGGLVQPGGSLRLSCAVSGFTFSSYWMSWVRQAPGKGLEWVANIKEDGSEKNYVDSVKGRFTLSSDNAKNSLYLQMNSLRAEDTAVYYCAREDYDSYYKYGMDVWGQGTAVIVSS
VL: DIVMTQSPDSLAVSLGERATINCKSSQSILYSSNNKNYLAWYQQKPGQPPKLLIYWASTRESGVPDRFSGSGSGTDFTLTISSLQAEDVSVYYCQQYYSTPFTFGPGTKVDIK
notes: human IgG4(S108P) form of H2M1704N
As to B1, in assay [1], the “IC50, IFN-g release, average of donors” value worked out at 12 nM; the “IC50, IFN-g release, donor D5” value amounted to 17 nM; the “IC50, IFN-g release, donor D6” value came out at 11 nM; the “IC50, IFN-g release, donor D7” value was 12 nM. Besides, in assay [1], the “IC50, IFN-g release, donor D8” value is 19 nM; the “IC50, IFN-g release, donor D9” value came to 7.5 nM; the “IC50, IFN-g release, donor D10” value stood at 10 nM; the “IC50, IFN-g release, donor D11” value amounted to 11 nM. Besides, the “IC50, IFN-g release, donor D12” value in assay [1] stood at 8 nM. The molecule also displayed an IC50 in assay [2] of 0.17 nM. Besides, in assay [3], the Kd is 1.3 nM and the t1/2 worked out at 27 min. Moreover, in assay [4], the Kd is 0.046 nM and the t1/2 is 133 min. The IC50 in assay [5] is 0.044 nM.

B2: H4H1742P (antibody, human IgG4 S228P, V domains shown)
VH: EVQLVESGGGLVQPGGSLRLSCAASGFTFSNYVMNWVRQAPGKGLEWVSVISGSGGSTHYADSVKGRFTISRDNSKDALYLQMNSLRAEDTAVYYCAKGPLEAYYYYNGMDVWGQGTTVTVSS
VL: DIQLTQSPSFLSASVGDRVTITCWASQAISSYLAWYQHKPGRAPKLLIYSTSTLQSGVPSRFSGSGSGTEFTLTISSLQPEDFATYYCQQLNSYPTFGQGTKLEIK
With B2, in assay [1], the “IC50, IFN-g release, average of donors” value worked out at 20 nM; the “IC50, IFN-g release, donor D1” value was determined as 24 nM; the “IC50, IFN-g release, donor D2” value was 4.6 nM; the “IC50, IFN-g release, donor D3” value amounted to 10 nM. Also, in assay [1], the “IC50, IFN-g release, donor D4” value stood at 13 nM; the “IC50, IFN-g release, donor D5” value was determined as 12 nM; the “IC50, IFN-g release, donor D6” value was determined as 10 nM; the “IC50, IFN-g release, donor D7” value worked out at 31 nM. In addition, in assay [1], the “IC50, IFN-g release, donor D8” value came to 27 nM; the “IC50, IFN-g release, donor D9” value turned out to be 56 nM; the “IC50, IFN-g release, donor D10” value amounted to 12 nM; the “IC50, IFN-g release, donor D11” value worked out at 27 nM. The “IC50, IFN-g release, donor D12” value in assay [1] worked out at 14 nM. In addition, the IC50 in assay [2] is 0.231 nM. Moreover, the binding result in assay [3] is “no binding (tested: up to 100 nM)”. In assay [6], this molecule gave a Kd of 0.696 nM and a t1/2 of 45 min. In addition, in assay [4], binding was put at a Kd of 0.653 nM and the t1/2 amounted to 27 min. The molecule further gave an IC50 in assay [5] of 0.214 nM.

B3: H4H1719P (antibody, human IgG4 S228P, V domains shown)
VH: EVQLVESGGGLVQPGRSLRLSCVASGFTFQDYAMHWVRQAPGKGLEWVSGINWISDDMGYADSVMGRFTISRDNAKNSLYLQMDSLRAEDTALYYCAKDKGLRFLDYVMDVWGQGTTVTVSA
VL: DIVMTQSPLSLPVTPGEPASISCRSTQSLLHRNGHNYLHWYLHKPGQSPQLLIHLGSNRASGVPDRFSGSGSGTDFTLKISRVEAEDVGVYYCMQALQTPYTFGQGTKLEIK
In the case of B3, the values for the IC50 in assay [2] and in assay [5] were 0.045 nM and 0.023 nM, respectively. In assay [3], the binding result is on record as “no binding (tested: up to 100 nM)”. Also, the values for the Kd in assay [6] and in assay [4] were 0.174 nM and 0.078 nM, respectively. The t1/2 is 42 min in assay [6] and 86 min in assay [4].

B4: H4H1738P (antibody, human IgG4 S228P, V domains shown)
VH: EVQLVESGGALVKPGGSLRLSCAVSGFTFINDWMNWVRQAPGKGLEWVGRIKSTTDGGTTDDAAPVKGRFTISRDDSKNTLYLQMNSLKTEDTAVYYCTRDRNRQRNYFYDGMDVWGQGTTVTVSA
VL: B3 VL with L9V, T26S, S28R, R32N, H35N, H39D, H43Q, H54Y, I80V
In assay [2], B4 displayed an IC50 of 0.15 nM. The binding result in assay [3] is reported as “no binding (tested: up to 100 nM)”. In assay [6], this molecule had a Kd of 3.1 nM and a t1/2 of 4 min. The same molecule displayed an IC50 in assay [5] of 0.152 nM.

B5: H4H1745P (antibody, human IgG4 S228P, V domains shown)
VH: EVQLVESGGGLVQPGGSLRLSCAASGFTFSSYAMTWVRQAPGKGLEWVSGVSGRGGSTYYADSVKGRFTISRDNSKNTLYLQMNSLRAEDTAVYYCAYWDISSFDYWGQGTLVTVSS
VL: DIQLTQSPSFLSASVGDRVTITCWASQGISTYLAWYQQKPGKTPKLLIYAASTLQSGVPSRFSGSGSGTDFTLTISSLQPEDFATYYCQQFNSYPLTFGGGTKVEIK
Take B5: the values for the IC50 in assay [2] and in assay [5] were 0.085 nM and 0.044 nM, respectively. In addition, the binding result in assay [3] was “no binding (tested: up to 100 nM)”. In addition, the Kd in assay [6] was 0.207 nM; in assay [4] it was 16.5 nM. The t1/2 in assay [6] stood at 71 min; in assay [4], 11 min.

B6: H4H1750P (antibody, human IgG4 S228P, V domains shown)
VH: QVQLVESGGGVVQPGRSLRLSCVASGFTFSNYGMHWVRQAPGKGLEWVAVISYDGNNDLYSDSVKGRFTISRDNAKNALSLQMTSLRAEDTAVYYCARDSTMTPYYYHGIDVWGQGTTVTVSA
VL: DIQMTQSPSSLSASVGDRVTITCRASQDIRNDLGWYQQKPGKAPKRLIYAASSLQSGVPSRFSGSGSGTDFTLTISSLQPEDFATYYCLQHNSYPPTFGQGTKVEIK
B6 gave an IC50 in assay [2] of 0.626 nM. The binding result in assay [3] was “no binding (tested: up to 100 nM)”. In assay [6], binding was put at a Kd of 0.244 nM and the t1/2 stood at 335 min. In assay [5], this molecule had a half-maximal inhibitory concentration (IC50) of 0.589 nM.
